Data from paper PMC12527917, “Regulation of kinesin-2 motility by its β-hairpin motif” (Nature Structural & Molecular Biology, 2025).

B1: Kif3B (human kinesin-2 motor subunit), full length (natural protein, UniProt O15066 1-747, looked up)
chain: MSKLKSSESVRVVVRCRPMNGKEKAASYDKVVDVDVKLGQVSVKNPKGTAHEMPKTFTFDAVYDWNAKQFELYDETFRPLVDSVLQGFNGTIFAYGQTGTGKTYTMEGIRGDPEKRGVIPNSFDHIFTHISRSQNQQYLVRASYLEIYQEEIRDLLSKDQTKRLELKERPDTGVYVKDLSSFVTKSVKEIEHVMNVGNQNRSVGATNMNEHSSRSHAIFVITIECSEVGLDGENHIRVGKLNLVDLAGSERQAKTGAQGERLKEATKINLSLSALGNVISALVDGKSTHIPYRDSKLTRLLQDSLGGNAKTVMVANVGPASYNVEETLTTLRYANRAKNIKNKPRVNEDPKDALLREFQEEIARLKAQLEKRSIGRRKRREKRREGGGSGGGGEEEEEEGEEGEEEGDDKDDYWREQQEKLEIEKRAIVEDHSLVAEEKMRLLKEKEKKMEDLRREKDAAEMLGAKIKAMESKLLVGGKNIVDHTNEQQKILEQKRQEIAEQKRREREIQQQMESRDEETLELKETYSSLQQEVDIKTKKLKKLFSKLQAVKAEIHDLQEEHIKERQELEQTQNELTRELKLKHLIIENFIPLEEKSKIMNRAFFDEEEDHWKLHPITRLENQQMMKRPVSAVGYKRPLSQHARMSMMIRPEARYRAENIVLLELDMPSRTTRDYEGPAIAPKVQAALDAALQDEDEIQVDASSFESTANKKSKARPKSGRKSGSSSSSSGTPASQLYPQSRGLVPK
notes: Kif3B, human, synthesised gene, full-length subunit; source: Sf9 (baculovirus), coexpressed with Kif3A, purified (IgG Sepharose, TEV elution, SEC); not shown: ZZ, N-terminal, cleaved
B2: Kif3B^ΔC156 (domain or fragment, human, UniProt O15066 1-591, looked up)
chain: MSKLKSSESVRVVVRCRPMNGKEKAASYDKVVDVDVKLGQVSVKNPKGTAHEMPKTFTFDAVYDWNAKQFELYDETFRPLVDSVLQGFNGTIFAYGQTGTGKTYTMEGIRGDPEKRGVIPNSFDHIFTHISRSQNQQYLVRASYLEIYQEEIRDLLSKDQTKRLELKERPDTGVYVKDLSSFVTKSVKEIEHVMNVGNQNRSVGATNMNEHSSRSHAIFVITIECSEVGLDGENHIRVGKLNLVDLAGSERQAKTGAQGERLKEATKINLSLSALGNVISALVDGKSTHIPYRDSKLTRLLQDSLGGNAKTVMVANVGPASYNVEETLTTLRYANRAKNIKNKPRVNEDPKDALLREFQEEIARLKAQLEKRSIGRRKRREKRREGGGSGGGGEEEEEEGEEGEEEGDDKDDYWREQQEKLEIEKRAIVEDHSLVAEEKMRLLKEKEKKMEDLRREKDAAEMLGAKIKAMESKLLVGGKNIVDHTNEQQKILEQKRQEIAEQKRREREIQQQMESRDEETLELKETYSSLQQEVDIKTKKLKKLFSKLQAVKAEIHDLQEEHIKERQELEQTQNELTRELKLKHLIIENFI
notes: Kif3B, human, 156 amino acids truncated from the C terminus (removes the Kif3B β-hairpin motif); also called Kif3B^Δ156; source: Sf9 (baculovirus), coexpressed with Kif3A^ΔC103, purified (IgG Sepharose, TEV elution, SEC); not shown: ZZ, N-terminal, cleaved
B3: Kap3 (human) (natural protein, UniProt Q92845 1-792, looked up)
chain: MQGEDARYLKRKVKGGNIDVHPSEKALIVHYEVEATILGEMGDPMLGERKECQKIIRLKSLNANTDITSLARKVVEECKLIHPSKLNEVEQLLYYLQNRRDSLSGKEKKEKSSKPKDPPPFEGMEIDEVANINDMDEYIELLYEDIPDKVRGSALILQLARNPDNLEELLLNETALGALARVLREDWKQSVELATNIIYIFFCFSSFSQFHGLITHYKIGALCMNIIDHELKRHELWQEELSKKKKAVDEDPENQTLRKDYEKTFKKYQGLVVKQEQLLRVALYLLLNLAEDTRTELKMRNKNIVHMLVKALDRDNFELLILVVSFLKKLSIFMENKNDMVEMDIVEKLVKMIPCEHEDLLNITLRLLLNLSFDTGLRNKMVQVGLLPKLTALLGNDNYKQIAMCVLYHISMDDRFKSMFAYTDCIPQLMKMLFECSDERIDLELISFCINLAANKRNVQLICEGNGLKMLMKRALKFKDPLLMKMIRNISQHDGPTKNLFIDYVGDLAAQISNDEEEEFVIECLGTLANLTIPDLDWELVLKEYKLVPYLKDKLKPGAAEDDLVLEVVIMIGTVSMDDSCAALLAKSGIIPALIELLNAQQEDDEFVCQIIYVFYQMVFHQATRDVIIKETQAPAYLIDLMHDKNNEIRKVCDNTLDIIAEYDEEWAKKIQSEKFRWHNSQWLEMVESRQMDESEQYLYGDDRIEPYIHEGDILERPDLFYNSDGLIASEGAISPDFFNDYHLQNGDVVGQHSFPGSLGMDGFGQPVGILGRPATAYGFRPDEPYYYGYGS
notes: Kap3, human, synthesised gene; SNAPf labelled with SNAP-Cell TMR-Star in the TIRF colocalisation assay; No truncation is mentioned; probably the whole protein; source: Sf9 (baculovirus), purified (IgG Sepharose, TEV elution, SEC); not shown: ZZ, N-terminal, cleaved; SNAPf, N-terminal, kept

Columns and labels:
Conditions in all cases: both partners purified
[1] = molecular target: B3; assay: single-molecule TIRF colocalisation; Alexa-Fluor-647-labelled Kif3AB/C constructs on surface-attached microtubules (1 mM AMPPNP in Fig. 4c), TMR-labelled Kap3 at 1 nM, buffer B, 25 °C; fraction of Kif3A spots with Kap3 signal
[2] = molecular target: T1, Kif3A^ΔC103 (human, UniProt Q9Y496 1-596); assay: SEC; motor subunits coexpressed in Sf9, purified through the ZZ tag of Kif3B/C on IgG Sepharose, TEV elution, Superose 6 Increase 3.2/300 in buffer A (50 mM Tris-HCl pH 7.5, 150 mM K-acetate, 2 mM Mg-acetate, 5% glycerol, 1 mM DTT, 0.2 mM Mg-ATP); SDS-PAGE of peak fraction
T1 construct: Kif3A, human, 103 amino acids truncated from the C terminus; also called Kif3A^Δ103; source: Sf9 (baculovirus), coexpressed with Kif3B constructs, purified (IgG Sepharose, TEV elution, SEC); not shown: SNAPf, C-terminal, kept

[3] = molecular target: T2, Kif3A^ΔC89–Kif3B heterodimer (ΔInt1) (human, UniProt Q9Y496 1-610; O15066 1-747); assay: single-molecule TIRF colocalisation; Alexa-Fluor-647-labelled Kif3AB/C constructs on surface-attached microtubules (1 mM AMPPNP in Fig. 4c), TMR-labelled Kap3 at 1 nM, buffer B, 25 °C; fraction of Kif3A spots with Kap3 signal
T2 construct: Kif3A, human, 89 amino acids truncated from the C terminus (within the β-hairpin motif); Kif3B, human, synthesised gene, full-length subunit; also called Kif3A^Δ89B; source: Sf9 (baculovirus), coexpressed, purified (IgG Sepharose, TEV elution, SEC); not shown: SNAPf, C-terminal, kept; ZZ, N-terminal, cleaved

[4] = molecular target: T3, Kif3A–Kif3B^ΔC90 heterodimer (ΔInt3) (human, UniProt Q9Y496 1-699; O15066 1-657); assay: as above
T3 construct: Kif3A, human, synthesised gene, full-length subunit; Kif3B, human, 90 amino acids truncated from the C terminus; source: Sf9 (baculovirus), coexpressed, purified (IgG Sepharose, TEV elution, SEC); not shown: SNAPf, C-terminal, kept; ZZ, N-terminal, cleaved

[5] = molecular target: T4, Kif3AB heterodimer, full length (human, UniProt Q9Y496 1-699; O15066 1-747); assay: as above
T4 construct: Kif3A, human, synthesised gene, full-length subunit; Kif3B, human, synthesised gene, full-length subunit; SNAPf on Kif3A labelled with Alexa Fluor 647 in the TIRF assays; A Kif3A construct without SNAPf was also cloned; also called Kif3A–Kif3B; Kif3AB^WT; source: Sf9 (baculovirus), coexpressed, purified (IgG Sepharose, TEV elution, SEC); not shown: SNAPf, C-terminal, kept; ZZ, N-terminal, cleaved

[6] = molecular target: T5, Kif3A–Kif3B^ΔC114 heterodimer (ΔInt2+3) (human, UniProt Q9Y496 1-699; O15066 1-633); assay: as above
T5 construct: Kif3A, human, synthesised gene, full-length subunit; Kif3B, human, 114 amino acids truncated from the C terminus; source: Sf9 (baculovirus), coexpressed, purified (IgG Sepharose, TEV elution, SEC); not shown: SNAPf, C-terminal, kept; ZZ, N-terminal, cleaved
T5 sequence (Q9Y496 whole entry, stated change not applied, the tested form may be a part, one chain of several): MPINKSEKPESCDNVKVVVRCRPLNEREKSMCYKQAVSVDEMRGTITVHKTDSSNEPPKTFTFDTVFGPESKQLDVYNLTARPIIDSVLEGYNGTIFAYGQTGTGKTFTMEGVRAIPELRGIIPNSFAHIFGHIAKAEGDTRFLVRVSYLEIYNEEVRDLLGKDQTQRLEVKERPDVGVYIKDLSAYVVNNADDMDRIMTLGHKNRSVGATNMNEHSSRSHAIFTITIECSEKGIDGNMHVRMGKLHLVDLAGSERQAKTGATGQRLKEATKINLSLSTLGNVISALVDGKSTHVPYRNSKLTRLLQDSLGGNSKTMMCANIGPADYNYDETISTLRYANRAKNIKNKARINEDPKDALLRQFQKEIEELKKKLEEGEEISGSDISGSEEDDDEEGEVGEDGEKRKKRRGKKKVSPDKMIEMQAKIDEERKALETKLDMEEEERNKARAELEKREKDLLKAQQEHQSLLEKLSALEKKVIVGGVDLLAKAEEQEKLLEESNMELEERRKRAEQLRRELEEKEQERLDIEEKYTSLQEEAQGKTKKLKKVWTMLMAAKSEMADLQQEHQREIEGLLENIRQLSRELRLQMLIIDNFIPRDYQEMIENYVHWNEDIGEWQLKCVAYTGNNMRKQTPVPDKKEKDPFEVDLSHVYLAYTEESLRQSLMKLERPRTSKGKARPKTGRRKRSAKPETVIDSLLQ

T2 sequence (Q9Y496 1-610, stated change not applied, one chain of several): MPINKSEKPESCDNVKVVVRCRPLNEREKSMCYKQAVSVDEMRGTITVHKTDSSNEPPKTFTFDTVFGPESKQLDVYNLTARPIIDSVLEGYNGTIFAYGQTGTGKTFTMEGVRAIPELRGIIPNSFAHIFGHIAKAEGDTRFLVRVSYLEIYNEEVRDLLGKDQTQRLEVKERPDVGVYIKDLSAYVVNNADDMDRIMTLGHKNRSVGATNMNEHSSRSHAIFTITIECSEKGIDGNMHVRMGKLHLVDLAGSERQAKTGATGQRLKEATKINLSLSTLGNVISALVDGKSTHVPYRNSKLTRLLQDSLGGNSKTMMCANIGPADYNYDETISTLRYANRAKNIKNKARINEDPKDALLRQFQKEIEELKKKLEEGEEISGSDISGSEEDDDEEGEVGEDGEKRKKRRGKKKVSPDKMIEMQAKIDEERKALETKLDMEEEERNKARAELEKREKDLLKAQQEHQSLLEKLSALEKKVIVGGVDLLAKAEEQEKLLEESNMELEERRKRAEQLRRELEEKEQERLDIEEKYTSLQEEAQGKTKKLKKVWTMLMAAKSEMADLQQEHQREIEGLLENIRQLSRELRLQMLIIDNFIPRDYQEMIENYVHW
T1 sequence (Q9Y496 1-596, stated change not applied): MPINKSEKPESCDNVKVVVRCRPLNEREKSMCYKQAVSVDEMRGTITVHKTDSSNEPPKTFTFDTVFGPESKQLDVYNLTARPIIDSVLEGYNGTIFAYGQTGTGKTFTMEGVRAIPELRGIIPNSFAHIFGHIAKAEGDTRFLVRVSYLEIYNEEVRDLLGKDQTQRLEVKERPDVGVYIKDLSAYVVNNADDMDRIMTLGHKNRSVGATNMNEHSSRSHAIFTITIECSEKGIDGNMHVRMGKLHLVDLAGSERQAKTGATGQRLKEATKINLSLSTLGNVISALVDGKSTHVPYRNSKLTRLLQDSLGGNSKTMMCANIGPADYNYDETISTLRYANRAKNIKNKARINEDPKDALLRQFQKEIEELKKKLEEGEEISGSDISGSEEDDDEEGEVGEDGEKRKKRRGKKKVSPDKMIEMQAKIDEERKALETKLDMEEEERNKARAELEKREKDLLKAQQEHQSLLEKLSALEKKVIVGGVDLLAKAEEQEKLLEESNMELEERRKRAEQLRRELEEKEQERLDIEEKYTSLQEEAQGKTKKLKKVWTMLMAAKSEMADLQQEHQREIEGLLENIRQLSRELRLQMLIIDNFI
T3 sequence (Q9Y496 whole entry, stated change not applied, the tested form may be a part, one chain of several): as the sequence (Q9Y496 whole entry, stated change not applied, the tested form may be a part, one chain of several) above
T4 sequence (Q9Y496 whole entry, one chain of several): as the sequence (Q9Y496 whole entry, stated change not applied, the tested form may be a part, one chain of several) above

B1
binding result [1]: binds

B2
binding result [2]: binds

B3
percent of Kif3AB molecules with colocalised Kap3 [3]: 26%
percent of Kif3AB molecules with colocalised Kap3 [4]: 62%
percent of Kif3AB molecules with colocalised Kap3 [5]: 82%
percent of Kif3AB molecules with colocalised Kap3 [6]: 50%
